Source: patent US20220204629A1

What was measured:
[1] = biological target: galectin-9 on the cell surface of the CRL-2134 cell line (human) (UniProt O00182); assay: flow cytometry, saturation curve on CRL-2134 cells
[2] = biological target: mouse Galectin-9 CRD2 (residues 226-353) (mouse) (UniProt O08573); assay: bead based binding, mouse CRD2
[3] = biological target: mouse Galectin-9 CRD2 (residues 226-353) (mouse) (UniProt O08573); assay: SPR, One Step method, Pioneer; mouse CRD2
[4] = biological target: mouse Galectin-9 CRD2 (residues 226-353) (mouse) (UniProt O08573); assay: biolayer interferometry, G9.2-17 captured on anti-Fab probes, mouse gal-9 CRD2 in solution, global fit
[5] = biological target: recombinant, full length human Galectin-9 (R&D Systems 2045-GA) (human) (UniProt O00182); assay: cell-based or functional assay
[6] = biological target: galectin-9 on the cell surface of the CRL-2134 cell line (human) (UniProt O00182); assay: cell based binding, flow cytometry on CRL-2134 cells

recombinant, full length human Galectin-9 (R&D Systems 2045-GA) (human), sequence (O00182 other isoform, or with tags, fused parts or gaps limits assumed): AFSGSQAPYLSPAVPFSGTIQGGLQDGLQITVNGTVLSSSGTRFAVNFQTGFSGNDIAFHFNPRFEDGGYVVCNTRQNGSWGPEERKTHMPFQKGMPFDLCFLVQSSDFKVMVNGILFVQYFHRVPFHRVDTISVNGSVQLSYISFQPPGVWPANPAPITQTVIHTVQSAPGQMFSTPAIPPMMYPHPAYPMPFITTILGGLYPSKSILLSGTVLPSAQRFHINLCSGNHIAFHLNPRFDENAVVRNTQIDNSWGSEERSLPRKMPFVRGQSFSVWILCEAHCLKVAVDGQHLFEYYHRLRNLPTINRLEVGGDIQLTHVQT

Row | Kd [1] | Kd [2] | Kd [3] | Kd [4] | MOLM-13 T cell apoptosis assay [5] | Kd [6] | Binder
1 | 0.41 nM | 0.3 nM | 1.8 nM | 1.6 nM | 10% | – | G9.2-17 human IgG4 (antibody, V domains shown) VH: EVQLVESGGGLVQPGGSLRLSCAASGFTVSSSSIHWVRQAPGKGLEWVAYISSSSGYTYYADSVKGRFTISADTSKNTAYLQMNSLRAEDTAVYYCARYWSYPSWWPYRGMDYWGQGTLVTVSS VL: DIQMTQSPSSLSASVGDRVTITCRASQSVSSAVAWYQQKPGKAPKLLIYSASSLYSGVPSRFSGSRSGTDFTLTISSLQPEDFATYYCQQSSTDPITFGQGTKVEIKR
2 | 2.9 nM | 0.3 nM | 3.05 nM | – | – | 2.91 nM | G9.2-17 mIgG1 (antibody, V domains shown) VH: EVQLVESGGGLVQPGGSLRLSCAASGFTVSSSSIHWVRQAPGKGLEWVAYISSSSGYTYYADSVKGRFTISADTSKNTAYLQMNSLRAEDTAVYYCARYWSYPSWWPYRGMDYWGQGTLVTVSS VL: DIQMTQSPSSLSASVGDRVTITCRASQSVSSAVAWYQQKPGKAPKLLIYSASSLYSGVPSRFSGSRSGTDFTLTISSLQPEDFATYYCQQSSTDPITFGQGTKVEIKR
